Reference: paper PMC11500988

Molecular target: human FcγRIIIa-V158 (CD16a, V158 allotype) (human) (UniProt P08637)

EC50 of the in vitro ADCC assay (luminescence, Bio-Glo reagent; BT-474 target cells, Jurkat cells): 0.017 µg/mL
Substance: P-TMab (trastuzumab produced by the glycoengineered rice cell line PhytoRice, line PHYTO101) (antibody)
